# Assay results from publication PMC4198062.
# Biological target: c-Jun (UniProt P05412)
# Test: single molecule FRET, surface-immobilized PAGE4
# Conditions: reference: PAGE4 P102C expressed alone (nonphosphorylated); sites T51
substance,measurement,value
PAGE4 (from UniProt O60829) PAGE4 P102C coexpressed with GST-HIPK1 in E. coli,other: percent of molecules shifted to low FRET with c-Jun,weaker; reference 70
